Reference: the DeepSol protein solubility set

assay: soluble on expression in E. coli; label from the status in PepcDB or PDB records

Sequence	soluble on expression in E. coli
MGSDKIHHHHHHMTIRGKAYIAGIYEHPTRHAPDKSIAQLHAEVAKGALDDAGLTKADIDGYFCAGDAPGGVMAMVDYLGLKVRHFDSTDTGGCSYLVHLGHAAEAIAAGRCSVALITLAGKPRTGALPPRPVGAEGDFELAYGATTHNVYAMCAARHMHQYGTTSEQLAWIKVAASHHAQYNEHAMLRDVVTVEDVLNSPLIADPLHRMDCCVVTDGGGALIVTTEEIARSLKKPLVRMIGAGEAIKGPRGGHNLDLTYSAGVWSAPPAFEMAGVTPKDIKYASIYDSFTITVLMQLEDLGFCEKGQGGKFVADGNLISGVGKLPFNTDGGGLCSNHPVNRGGMTKLLEAVRQLRGEAHPKVQVPNCDLAIAHGTGGMLGIRHAASTCILERV	not soluble
MGSDKIHHHHHHMNDRFVCSLIEKSDLSNFVKKHSKNVFYDIAKAEAAVHQQTIDTIHFHEVGAIDSIVDIVGFFILWEQLEIEQVYSTPITDGSGTITIAHGVMPIPVPAVMELRKETNLIIQQDFEIKTELVTPTGLAIFKELSPLFVAPEQRLIEKIGYGFGKRETGKFNALRGSIFTETHSKKKRTEHHDQVLKIETNIDNQTPEQLGYVMDLLLEHGALDVFFTPIHMKKNRSAILLTVLTTTEEKEYFTELLFKHTSTIGMRFQTMERSVMDRSFKILETPFGKVHIKKNHYHGLLKESIEYQDCERIAKQYNFTIEEVYRLVQTLNNKTID	not soluble
HPWQRASVWAEILPSILFRTDFTNAQDEPDEMSSKLHRRSSFQPAFQVGVAYRVSDHMGIEAHAGYQLGEAVYHLMEETSTWSIIKKRATVPYRGFEFAVGLQFYPFR	not soluble
MKILFVAAEGAPFSKTGGLGDVIGALPKSLVKAGHEVAVILPYYDMVEAKFGNQIEDVLHFEVSVGWRRQYCGIKKTVLNGVTFYFIDNQYYFFRGHVYGDFDDGERFAFFQLAAIEAMERIDFIPDLLHVHDYHTAMIPFLLKEKYRWIQAYEDIETVLTIHNLEFQGQFSEGMLGDLFGVGFERYADGTLRWNNCLNWMKAGILYANRVSTVSPSYAHEIMTSQFGCNLDQILKMESGKVSGIVNGIDADLYNPQTDALLDYHFNQEDLSGKAKNKAKLQERVGLPVRADVPLVGIVSRLTRQKGFDVVVESLHHILQEDVQIVLLGTGDPAFEGAFSWFAQIYPDKLSTNITFDVKLAQEIYAACDLFLMPSRFEPCGLSQMMAMRYGTLPLVHEVGGLRDTVRAFNPIEGSGTGFSFDNLSPYWLNWTFQTALDLYRNHPDIWRNLQKQAMESDFSWDTACKSYLDLYHSLVN	not soluble
MSTTDKQVAIVGVGPRGISILERIAAALNTVSRPKQGLTIHLIEDAQMGAGNVWRTDQTRTLCMNTLAGAVTLFTEPGSTVSAPVVEGPLQFDWIRLLRGDEDLSGIPTKAIELFRTYPPAASVAEDFKEELAATVIQSNPSRALYGAYLRWAFDVALQLLPQWVKVEQHHARAIGIREDGDRDVITLDNSEMISADSTVLAVGWQTPAPNAEELSIAAALEENPDLVWVKPGNPVEQDASLIPAGEQVLVRGLGMGFFDIMALTTIDRGGIFHEDPSTRSGLRYEASGEEPHFVISSGRGYPYLPKSDYKSLPPGAKLARLKAVIAAINAQNRGVASINYDAEVWPAVARDAYEAYYETLDRVSPESIRTGLDKIVEIIDEVDVDKLPKALAAHTDDVFDLHAWEFPLAGINESVEALTARIADGMARDIRHAVTAWDSPLKSALWSISAARKPSSILGAEGRLTFESRRNRFAAVMAIGQMVGSGPPLFRTRELLALVDAGLAHFAGARPRLSVSDGQWQISSPTTGDTPLRSKVLVDAWMHNP	not soluble
GMSQATAKVNREVQAFLQDLKGKTIDHVFFVACGGSSAIMYPSKYVFDRESKSINSDLYSANEFIQRNPVQLGEKSLVILCSHSGNTPETVKAAAFARGKGALTIAMTFKPESPLAQEAQYVAQYDWGDEALAINTNYGVLYQIVFGTLQVLENNTKFEQAIEGLDQLQAVYEKALKQEADNAKQFAKAHEKESIIYTMASGANYGVAYSYSICILMEMQWIHSHAIHAGEYFHGPFEIIDESVPFIILLGLDETRPLEERALTFSKKYGKKLTVLDAASYDFTAIDDSVKGYLAPLVLNRVLRSYADELAEERNHPLSHRRYMWKVEY	soluble
MKLLILGNHTCGNRGDSAILRGLLDAINILNPHTEVDVMSRYPVSSSWLLNRPVMGDPLFLQMKQHNSAAGVVGRVKKVLRRRYQHQVLLSRVTDTGKLRNIAIAQGFTDFVRLLSGYDAIIQVGGSFFVDLYGVPQFEHALCTFMAKKPLFMIGHSVGPFQDEQFNQLANYVFGHCDALILRESVSLDLMKRSNITTAKVEHGVDTAWLVDHHTEDFTASYAVQHWLDVAAQQKTVAITLRELAPFDKRLGTTQQVYEKAFAGVVNRILDEGYQVIALSTCTGIDSYNKDDRMVALNLRQHISDPARYHVVMDELNDLEMGKILGACELTVGTRLHSAIISMNFATPAIAINYEHKSAGVMQQLGLPEMAIDIRHLLDGSLQAMVADTLGQLPALNARLSEAVSRERQTGMQMVQSVLERIGEVK	soluble
GSEDINRNPLLPTKEDEKMDGVIYGAYLPNLEKSVIPIGTASESTEPVNRYQIGVNLAGDAWAGYMSPRDNKFNGSKNFTNYFMYENWVNYVYSFMVTDVYSPWMQIKRISQDEGTRNDEIYALAQIIKIAALHRTTDMFGPIPYSQVGKGSFKVAYDSQESVYRSFLKELEEAVQTLDDYSNKSKEVLPAFDIVYNGDVNKWMRFANSLMLRLAIRVRFADAGLAKEYAEKAVKHPAGLINSKELAAQMGKGAGLQMKNPLKVINEEYNDTRMGATIYSYLAGYNDARAAVYFVKNNGFKAVRCGIAKSGDAYNGFTRPNVHEDDPLYWMKASEVCFLKAEGALAGFDMGGSAGDFYNAGIRMSFSENGLDNSSAETYLKDSTRKPANYTDTSNGELSANAPSSITIRWENGATEEEKLERIITQKYLAIFPNGQEAWTEWRRTGYPRQIVVAENKTNSAVLIGNGYDLGGVRRLPYPRTEYEQNGENLHNAISQYLGGVDNAATKVWWDKKSK	soluble
MGSDKIHHHHHHMKFKIHSDITYQVMSPTTFIFNVHALRTESQHILDESLIVTPPIEIEEFSYNSGTSRFVRLKATENTTFSMSYTATVDTQYKVIDQRQELETVPVVDLDGDIIPFLFPSRYCQSDKLQKLAYKEFGKIENVYSKVLAITDWIYNNVEYISGSTNSQTSAFDTITERAGVCRDFAHLGIALCRALSIPARYFTGYAFKLNPPDFHACFEAYIGGNWIIFDATRLVPLNGLVKIATGRDAADAAVASIFGNASSTNMHVECASLDTDFTPFWYDKNSLKGLSFQ	not soluble
MSLNPVNGAILSIEISHPNGFEIDENISAYHDAEYYMDRIFDSGNYDSLIVLTSIKILSQHWEIDNDMVVTSQSIRQLAIDTINSKAESGTIKNYWFKLQSLCEEFKNLSQETLSLSVFDNQVLTLNVNGHGIFRKSAFFESFANQKLNSADGKLMLIFNKFETFISRKSYHKLHEELLQLRKISANEITNLFTKHIEGKISTNEIQTILKDLEQIPGIVEIVKSLIGSSGFELIVDANSISSKELGAFHKISTVMIFKNIMETHKTLLLDLVVLFLTCETNDQIVEFVNQIRATLVQYDVMEVVFTTCLNKGEVETKNMGQVQNSIFWSSVVATHSQLKRLIESLQLNDGYEYFYNNVLPDDYLVDVVIELINNKEYFFLQKKFLTKLNQENKVEKLLVGLIYLFNNDVKSFYKIFNDYSNFQNFTENKIKNLNQDVNLQKFIEALLSNPSKSQYFHGLSKLVQSQIKTNDNKSQQEEHCFIEIASDFETLAIENEGHHHHHH	soluble
GSHMAEDEPFSGAKKLRHLLENTDELIVCPGVYDGLSARTAMELGFKSLYMTGAGTTASRLGQPDLAIAQLHDMRDNADMIANLDPFGPPLIADMDTGYGGPIMVARTVEHYIRSGVAGAHLEDQILTKRCGHLSGKKVVSRDEYLVRIRAAVATKRRLRSDFVLIARTDALQSLGYEECIERLRAARDEGADVGLLEGFRSKEQAAAAVAALAPWPLLLNSVENGHSPLITVEEAKAMGFRIMIFSFATLAPAYAAIRETLVRLRDHGVVGTPDGITPVRLFEVCGLQDAMEVDNGAGGKAFSEGV	soluble
MAGDPMRFQKIPMNIYEKFHRTFSGSNQDTFNVCSKCGGACEHNKIGTLLPGEKEYMAKKMGMSLSEFKLKYLDVLKMDDGTLIHVLKLGELCPFLNTETELCECRDFKPVICKIYPVVFTVESGKVKFSIDDWCQLSRKKVCRNYFESVIPLLYRLPVPVEWFRHVVSYDDLYFDYDQLRESRKGKSRYAVFTLKELLNFQKEELACHEIETYEPETGRMELYEIKVTSPNIDFCSEIEEPTFLEHHHHHH	soluble
MGSSHHHHHHMQPEHVKERYKNFLNQHVGPDMSVQRCNSEIGPNNRKITLSGTDNGCKPVNTFILANKRLIKTVCGRAGSPQGNMVRSNQPFPVVKCVLNNGERHPYCEYRGTRSTRYIVLKCEEGWPVHYHEDEVNVG	soluble
MVQQQQQSQQRMMELHERNDREKLARKTEKEREEERRKQEDDKILQLEKKLEEFQENARFIGDLASNFQTKYQDALNGRIYTLVRGLQDLDRMKGTFSDKKVPLDLLPYLDDGKNPCLYSKHCMEKTLEKNKAVNGKIEIYKKFRAHLMKEFSEEMPDLVMYYRSIREDLDLS	not soluble
MGSYLSVPAYFTSRDLFRCSECQDSLTNWYYEKDGKLYCPKDYWGKFGEFCHGCSLLMTGPFMVAGEFKYHPECFACMSCKVIIEDGDAYALVQHATLYCGKCHNEVVLAPMFERLSTESVQEQLPYSVTLISMPATTEGRRGFSVSVESACSNYATTVQVKEVNRMHISPNNRNAIHPGDRILEINGTPVRTLRVEEVEDAISQTSQTLQLLIEHDPVSQRLDQLRLEARLAPHMQNAGHPHALSTLDTKENLEGTLRRRSLRRSNSISKSPGPSSPKEPLLFSRDISRSESLRCSSSYSQQIFRPCDLIHGEVLGKGFFGQAIKVTHKATGKVMVMKELIRCDEETQKTFLTEVKVMRSLDHPNVLKFIGVLYKDKKLNLLTEYIEGGTLKDFLRSMDPFPWQQKVRFAKGIASGMAYLHSMCIIHRDLNSHNCLIKLDKTVVVADFGLSRLIVEERKRAPMEKATTKKRTLRKNDRKKRYTVVGNPYWMAPEMLNGKSYDETVDIFSFGIVLCEIIGQVYADPDCLPRTLDFGLNVKLFWEKFVPTDCPPAFFPLAAICCRLEPESRAPPGAAGEGPGCADDEGPVRRQGKVTIKYDPKELRKHLNLEEWILEQLTRLYDCQEEEISELEIDVDELLDMESDDAWASRVKELLVDCYKPTEAFISGLLDKIRAMQKLSTPQKK	soluble
MKGRVRIRGIYATALTSIFSSLSYEIVQQSVEISERFMQEINNLSADITIKDFEDDRGKIIVMGNGIIEDDLRNVFKYSFHWRSPVKLYSVIEIDESCTYANFKVEPCLREGIVIKPPYDGKIILSETKAVSKYAIVWRGKGITTFSEHIVDEEEKMRLLTLSLPLNRKGYNVKWRSNAKYVALNELKEDLERLILRYENREFRDQGEDFYLITLSLPDKLYLDEVRKNVVDTVKYHHMLKLSYNREVDSLEKDKKGSLGKLLEGLISDFLKIEHIKADGKVIYLRGGKVIEKEVNDNGYRIVLRREFEGNGILDGIGKKIEEGDYDIVEYNSDKWYQIHKYYSGIDNSLKGVYINISTPPELLRGKIRYLDLEIDIAIRDSEIALLDEDELNKKSIYMPSSLVNKAKEVVNYLINRIQQNKLS	not soluble
MSLNGQNTISDIGDATEDQIKDVIQIMNDNIDKFLERQERVSLLVDKTSQLNSSSNKFRRKAVNIKEIMWWQKVKNITLLTFTIILEGHHHHHH	not soluble
